# Reference: the nanobody polyreactivity screen of Harvey et al. (2022)
# Experiment: yeast display, Sf9 membrane polyspecificity reagent, FACS + sequencing; frameworks hold sequencing errors
# Summary of the method: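 Nanobodies from a synthetic yeast display library (Saccharomyces cerevisiae BJ5465), induced 36–48 hours with galactose, were stained 1 hour at 4 °C with 10% biotinylated, detergent-solubilized Sf9 membrane reagent, enriched on streptavidin microbeads, then FACS-sorted. Anti-HA (expression) and streptavidin (reagent binding) fluorescence set low and high (top ~1%) gates. Polyreactivity labels come from the gate of origin. Genes were colony-PCR amplified, MiSeq 2 × 250 sequenced and filtered by CDR length.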
row,Sequence,polyreactivity (PSR sort gate)
1,QVQLVESGGGLVQAGGSLRLSCAASGSIFWLYAMGWYRQAPGKEREFVAAITTSGSSTRYADSVKGRFTISRDNAKNTVYLQMNSLKPEDTAVYYCAARNRTFFQPTYYYWGQGTQVTVSS,high polyreactivity
2,QVQLVESGGGLVQAGGSLRLSCAASGRTFAVYAMGWYRQAPGKERELVASIRLSGTRTYYADSVKGRFTISRDNAKNTVYLQMNSLKPEDTAVYYCAAKGTYSRGTFNGYRYDYWGQGTQVTVSS,high polyreactivity
3,QVQLVESGGGLVQAGGSLRLSCASSGRIFDYNAKGWYRQAPGKERELVAAINSGGSTYADSVKGRFTISRDNAKNTVDLQMNSLKPEDTAVYYCAKSLGQTDWEYDSWGQGTQVTVSS,low polyreactivity
4,QVQLVESGGGLVQAGGSLRLSCAASGRIIGIKAMGWYRLAPGKEMELVATITSGGDTNYADSVKGRFTISRDNAKNTVYIQMNSLKPEDTAVYYCNAESYGLGIGYEYWGQGTQVTVSS,low polyreactivity
5,QVQLVESGGGLVQAGGSLRLSCAASGRTFRVYAKGWYRQAPGKERDFVAAITDSGGRKYYADSVKGRFTISRDNAKHTVYVQMNSLKPEDTAVYYCNAYEYFVRYDTYLFRYDYWGQGTQVTVSS,low polyreactivity
6,QVQLVESGGGLVQAGGSLRLSCAASGSTFNYYAMGWYRQAPGKERELVAVITNGGTTYYADSVKGRFTISRDNAKNTVYLQMNSLKPEDTAVYYCAAALLGRSKRFYYWGQGTQVTVSS,high polyreactivity
7,QVQLVESGGGLVQAGGSLRLSCAASGSTSDINAMGLYRQAPGKERELVAVITDSSNTDYADSVKGRFTISRDNAKNTVYLQMNSLKPEDTAVYYCAADRDEPDPYDYWGQGTQVTVSS,low polyreactivity
8,QVQLVESGGGLVQAGGSLRLSCAASGIIFYRYAMGWYRQAPGKERELVAAISASGDSTYYADSVKGRFTISRDNAKNTVYLQMNSLKPEDTAVYYCAADYGYRYDYWGQGTQVTVSS,low polyreactivity
9,QVQLVESGGGLVQAGGRLRLSCAASGFTFRYYALGWYRQAPGKERELVAAISAGGGSTYYADSVKGRFTISRDNAKNNVYLQMHSQKPDDTAVYYCASAGARPGYDYWGQCTQVTVSS,high polyreactivity
10,QVQLQESGSGLVQARGSLRLSCAASGAIFPAYLMGWYRHAPGKERELVAGISYGSITYCADSVKGRFNISRDNAKNTVYLQRNSLKPEDTAVYYCAVWRPGGDEYYYWGQGTQVTVSS,low polyreactivity
11,QVQLVESGGGLVQAGGSLRLSCAASGRIFGAYALGWYRQAPGKERELVAAINSGGSTFYAHSVKGRFTISRDNAKNTVYLQLNSLKPDDTAVYYCAKRSYDYRRYYWGQGTQVTVSS,high polyreactivity
12,QVQLVESGGGLVQAGGSLRLSCAASGSTFSTYAMGWYRQAPGKERELVASISGRGSSTDYADSVKGRFTISRDNAKNTVYLQMNSLKPEDTAVYYCNRRGYRTSTTYRRYNYWGQGTQVTVSS,high polyreactivity
13,QVQLVESGGGLVQAGGSLRLSCAASGSTFRTYAMGWYRQAPGKERELVAAISWSGGITYDADSVKGRFTISRDNAKNTVYLQMNSLKPEDTAVYFCDARLASWPLTYDFQWYEYWGQGTQVTVSS,low polyreactivity
14,QVQLVESGGGLVQAGGSLRLSCAASGRIFRINAMGWYRQAPGKERELVATITSGGGSTYADSVKGRFTISRDNAKNTVYLQMNSLKPEDTAVYYCAARSRIGRYTYDYWGQGTQVTVSS,high polyreactivity
15,QVQLVESGGGLVQAGGSLRLSCAASGSTFYRYAMGWYRQAPGKERELVAAITRSDGITYYADSVKGRFTISRDNAKNTVYLQMNSLKPEDTAVYYCAKGYVGSFYDDFYYWGQGTQVTVSS,low polyreactivity
16,QVQLGESGGGLVQAGGSLRLSCAASGSTFHPHAMGWYRQAPGKERELVATIRRTGDSTYDADSVKGRFTISRDHAKNTVNLQMNSLKPEDTAVYYCAARYYAESYRYYYWGQGTQGTVSS,high polyreactivity
17,QVQLVESGGGLVQAGGSLRLSCAASGRTFKWYAMGWYRQAPGKERELVASISWSGGGTYYADSVKGRFTISRDNAKNTVYLQMNSLKPEDTAVYECAAEYYNWGDYGYDYWGQGTQVTVSS,high polyreactivity
18,QVQLVESGGGLVQAGGSLRLSCSASGFTLGFNAMGCYRQAPGKEREFVASITYRGGSTYYADSVKGRFTISRDNAKNTVYLQMNSLKPEDTAVYYCAARHRSSYSLYWGQGTQVTVSS,high polyreactivity
19,QVQLVESGGGLVQAGGSLRLSCAASGITFDTYAMGWYRQAPGKERELVAAISSSGSTNYADSVKGRFTISRDNAKNTVYLQMNSLKPEDTAVYYCATDYWPGTGGNYDYWGQGTQVTVSS,low polyreactivity
20,QVQLVESGGGLVQAGGSLRLSCAASGFIIRYYTMGWSRQAPGKERELVAVITSGGTTYYADSVKGRFTISRDNAKNTVYLQMNSLKPEDTAVYYCAADYRPRLDGVGVDYWGQGTQVTVSS,low polyreactivity
21,QVQLVESGGGLVQAGGSLRLSCAASGIIFYHYAMGWYRQPPGKERELVAAITWSGGTTYYADSVKGRFTISRDNAKNTVYLQMNSMKPEDTAVYYCNADYVPYGFDYWGQGTQVTVSS,low polyreactivity
22,QLQLVESGGGLVQAGGSLRLSCAASGSTFRFNTMGWYRQAPGKERGLVACIAAGTTTNYADSVKGRFTISRDNAKNTVYLQMNSLKPEDAAVYYCAALNAFNTGHWYWGQGTQVTVSS,low polyreactivity

row,Sequence,polyreactivity (PSR sort gate)
1,QVQLVESGGGLVQAGGSLRLSCAASGGIFKYNAMGWYRQSPGKERELVAAIDTSGGSTYYADSVKGRFTISRDNAKNTVYLQMNSLKPEDTAVYYCAAELGLAQYYYWGQGTQVTVSS,low polyreactivity
2,QVQLVESGGGLVQAGGSLRLSCAASGSIFTHYAMGWYRQAPGKERELVAAISRRGGSTYYADSVKGRFTISRDNAKNTVYLQMNSLKPEDTAVYYCANSPDTAKEYDYWGQGTQVTVSS,high polyreactivity
3,QVQLVESGGGLVQAGGSLRLSCAASGFIFRRNAMGRYRQAPGKERELVAAITSRGGSTYYADSVKGRFTISRDNAKHTVYLQMNSLKPEDTAVYYCAAKFPSRFYSFVQYYYWGQVTQVTVSS,high polyreactivity
4,QVQLVESGGGLVQAGGSLRLSFAASGSIFGPYVMGWYRQAPGKERELVAAISKSGGSTYYADSVKGRFTISRDNAKNTVYLQMNSLKPEDTAVYYCATDYLGGGKRYYYWGQGTQVTVSS,high polyreactivity
5,QVHLVEAGGGLVQAGGSRRLSCAASGGIFTDYTMGWYRQAPGKETELVAAITWTGGSTYYADSVKGRFTISRDNAKNTVYLQMNSLKPEDTAVYDCAADDYWVNLDYWGQGTQVTVSS,low polyreactivity
6,QVQLVESGGGLVQAGGSLRLSCAASGSIFSTYAMGWYRQAPGKERELVATIRRGGSTYYADSVKGRFTISRDNAKNTVYLQMNSLKPEETAVYYCAGTVSSYPYYRYYTWGQGTQVTVSS,high polyreactivity
7,QVQLVESGGGLVQARGSLRLSCAPSGRTFQLNAMGWYRQAPGKERQLFAAITVSGGGKYYADSVKGRFTISRDYAKNTVYFQMNSLKPEDTAVYYCNAKYKTRGRKSLYDYWGQGTQVTVSS,high polyreactivity
8,QVQLVESGGGLVQAGGSLRLSCAASGSTFYPNSMGWYRQAPGKERELVDAISWSGGYTYYADSVKGRFTISRDNAKNTVFLQMNSLNPEDTAVYYCAAREFLYSWYTHLKYDYWGQGTQVTVSS,low polyreactivity
9,QVQLVESGGGLVQAGGSLRLSCAASGSIFDDNAMGWYRQAPGKERELVAAITSTDSTNYADSVKGRFTISRDNAKNTVYLQMNSLKPEDTAVYYCAKDARALWLHSGIYDYWGQGTQVTVSS,low polyreactivity
10,QVQLVESVGGLVQAGGSLRLSCAASGYIFDRNAMGWYRQAPGKERELVAAITKRGGITYYADSVKGRFTISRDNAKNTVYLQMNSLKPEDTAVYYCNALARSSRYDYWGQGTQVTVSS,low polyreactivity
11,QVQLVESGGGLVQAGGSLRLSCAASGLTSYFYDMGWYRQAPGKERELVAAIRASAARTYYADTVKGRFTISRDNAKNTVYLQMNSLKPEDTAVYSCAARYGYWRQFRWKYDYWGHGTQVTVSS,high polyreactivity
12,QVQLVESGGGLVQAGGSLRLSCAASGSTFGNAMGWYSQAPGKERELVAAISGSGSDTYYADSVKGRFTISRDNAKNPVYLQMNSLKPEDTAVYSWATETHRLDKGTDYGYDYWGQGTQVTVSS,low polyreactivity
13,QVQLQESGGGLVQAGGSLRLSCAASGSIANLIAKGWSRQAQRKEREFVAAIGPGANTNYADSVKGRFTISRDNANNTVYRQMNSLKPEDTAVYYCAVDYYGEAVYHYWGQGTQVTVSS,high polyreactivity
14,QVQLVESGAGLVQAGGSLRLSCAASGSIFTENSMGWYRQAPGKEREMVAAIRWDDGHTYYADSVKGRFTISRDNAKNTVYLQMNSLKPEDTAVYYCNADKWSSTDDWLYDYWGQGTQVTVSS,low polyreactivity
15,QVQLVESGGGLVQAGGSLRLSCAASGSIFYWYAMGWYRQAPGKERELVATITRGGSTNYADSVKGRFTISRDNAKNTVYLQMNSLKPEDTAVYYCAAQRVGHKRSTKLDYWGQGTQVTVSS,low polyreactivity
16,QVHLVESGGGLVQAGGSLRLSCAASGSIFGRYAMGWYRQAPGKEREFVAAISRGATNTYYADSVKGRFTISRDNAKNTVYLQMNSLKPEDTAVYYCARTQRYDYGYDYWGQGTQVTVSS,low polyreactivity
17,QVQLQESGGGLVQAGGSLRLICAASGTISTDSYMGWYRQAPGKERKFVATIGYGGITYYADSVNGRSTISRDSAKNTVYLQMNSLKPDDTAVYYCEVNSYYPYHYWYWGRGTQVTVSS,high polyreactivity
18,QGQLVESGGGLVQAGGSLRLSCAASGRIFSYNTMGWSRQAPGKERELVAAISTSGGSPYYADSVKGRFTISRDNAKNTVYLQMNSLTPEDTAVYYCNTVWTFRTSSNYDFWGQGTQVTVSS,low polyreactivity
19,QVQLVESGGGLVQAGGSLRLSCASSGFTFLINAMGWYRQAPGKERDLVAAIRSGGSTNYADSVKGRFTISRDNAKNTVYLQMNSLKPEDTAVYYCAARRYYPYKYRYGYWGQCTQVTVSS,high polyreactivity
20,QVQLVESGGGLVQAGGSLRLSCAASGNIFPYYAMGWYRQAPGKERELVAAISGSGDRTYYADSVKGRFTIARDNAKNTVYLQMNSLKPEDTAVYYCAASRRYYGWYEYWGQGSQVTVSS,high polyreactivity
21,QVQLVESGGGLVQAGGSLRLSCAASGFTLLTYVMGWYRQAPGKERELVAAITSSGGRTYYADSVKGRFTISRDNAKNTVYLQMNSLKPEDTAVYYCAAVGWGSSYRARYGYWGQGTQVTVSS,high polyreactivity
